Results from the supplement of paper PMC9732359.
± gives the uncertainty stated by the source.

Test: protein stability index of a GFP-peptide fusion (yeast GPS) (PSI 1-4); higher = more stable; sorted into four equal gates, so the index is relative within each strain
Method in brief: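 Each library plasmid carries Cherry plus GFP with a tiled 17-residue yeast protein peptide fused downstream, and the pooled library was carried in yeast. Mid-log cultures in leucine-free medium were sorted into four equal gates by GFP/Cherry ratio. Reads from Illumina sequencing of PCR-amplified plasmids from each gate were assigned to strains by barcodes. Per peptide, the protein stability index was computed as the summed products of gate read frequency and gate number.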

Row | Sequence | protein stability index (doa10∆) | protein stability index (pdr5∆) | protein stability index (san1∆) | protein stability index (ubr1∆)
1 | KMSVTCNAQPITRSVMR [BRR2] | 2.47 ± 0.06 | 2.67 ± 0.057 | 2.72 ± 0.056 | 2.5 ± 0.037
2 | VHTANFSERGSNTRTMT [MED2] | 3.37 ± 0.3 | 3.35 ± 0.26 | 3.08 ± 0.14 | 3.26 ± 0.22
3 | QTFNFDSFENYFNQLKP [RPN12] | 2.76 ± 0.047 | 2.9 ± 0.064 | 3.05 ± 0.052 | 3 ± 0.046
4 | LLREKQRVRNMRELGLI [YOR098C/NUP1] | 1.19 ± 0.19 | 1.14 ± 0.13 |  | 1.13 ± 0.19
5 | SIPNLFPTDLEIFQLFT [SWI1] | 2.6 ± 0.14 | 2.22 ± 0.12 | 2.27 ± 0.12 | 3.09 ± 0.19
6 | ELMKLDGTEYVLSSVRE [MED6] | 3.36 ± 0.083 | 3.27 ± 0.08 | 3.16 ± 0.048 | 3.15 ± 0.05
7 | VLKVYSMINNSNQAVGQ [SRB8] | 2.85 ± 0.07 | 2.78 ± 0.065 | 2.83 ± 0.067 | 2.63 ± 0.051
8 | DPQPFLKHVLQLIFRQQ [SNU114] | 1.38 ± 0.042 | 2.02 ± 0.052 | 2.44 ± 0.064 | 2.51 ± 0.038
9 | TKNDAGSKQILKTEAAN [BRR2] | 2.85 ± 0.055 | 2.95 ± 0.054 | 2.93 ± 0.039 | 3.04 ± 0.055
10 | TCGSKGSTLNVSQMVAV [RPO31] | 3.1 ± 0.13 | 2.89 ± 0.097 | 2.91 ± 0.15 | 2.79 ± 0.15
11 | NAGTDIVMEDHGVLQGT [MED1] | 3.11 ± 0.072 | 3.06 ± 0.1 | 3.08 ± 0.085 | 3 ± 0.067
12 | SLLNLLNISPFTFGLTV [RPP0] | 1.79 ± 0.049 | 1.91 ± 0.049 | 1.56 ± 0.078 | 1.84 ± 0.044
13 | NRQTLMFTATMTPVIEK [PRP28] | 2.56 ± 0.061 | 2.62 ± 0.052 | 2.42 ± 0.052 | 2.44 ± 0.043
14 | LPSSNGSSRIIASDGSE [RRP42] | 3.08 ± 0.091 | 2.86 ± 0.11 | 3.17 ± 0.11 | 2.74 ± 0.085
15 | QTIPIQIYGFEGLNQRN [YGR119C/NUP57] | 2.64 ± 0.27 |  | 2.52 ± 0.16 | 3.08 ± 0.18
16 | MVLEATVLVIDNSEYSR [RPN10] | 1.79 ± 0.097 | 1.72 ± 0.12 | 1.85 ± 0.12 | 2.2 ± 0.046
17 | TKLTTCKRELAFVKQKN [YIL149C/MLP2] | 1.84 ± 0.078 | 1.81 ± 0.086 | 1.54 ± 0.11 | 1.48 ± 0.071
18 | KDKTKNISAEIIRHEKE [SMC4] | 2.58 ± 0.12 | 3.02 ± 0.12 | 2.99 ± 0.086 | 2.91 ± 0.1
19 | IEDKENSESTTQGGNVN [RPT5] | 3.59 ± 0.14 | 3.31 ± 0.14 | 3.46 ± 0.17 | 3.6 ± 0.11
20 | SSVFLPSRKDCMEVASA [BRR2] | 2.73 ± 0.063 | 3.4 ± 0.077 | 3.33 ± 0.066 | 3.19 ± 0.059

Row | Sequence | protein stability index (doa10∆) | protein stability index (pdr5∆) | protein stability index (san1∆) | protein stability index (ubr1∆)
21 | NLLVLRGKNEIIQNAQR [RPO21] | 1.56 ± 0.11 | 1.41 ± 0.092 | 1.69 ± 0.16 | 1.26 ± 0.085
22 | RQDGSYTYHSTNKDNKA [ARP9] | 2.67 ± 0.062 | 2.97 ± 0.067 | 2.88 ± 0.044 | 2.64 ± 0.056
23 | LPNLGTPDDDEIDVENH [RPN8] | 1.53 ± 0.076 | 1.82 ± 0.083 | 1.69 ± 0.11 | 1.42 ± 0.056
24 | GPKKNVFYAPNVKNYST [RPC34] | 2.69 ± 0.072 | 2.56 ± 0.059 | 2.91 ± 0.056 | 2.49 ± 0.044
25 | KGSRFISTLQVKLYGRE [RPB2] | 2.06 ± 0.065 | 2.3 ± 0.057 | 2.58 ± 0.089 | 2.37 ± 0.056
26 | GRSDSNTEEKAELQSNL [YGL100W/SEH1] | 1.61 ± 0.037 | 1.64 ± 0.051 | 1.4 ± 0.14 | 1.52 ± 0.039
27 | VNYLISNTMYSVRLFSF [YJL039C/NUP192] | 1.43 ± 0.046 | 1.42 ± 0.058 | 1.34 ± 0.088 | 1.6 ± 0.056
28 | SFFHQSNMQKSLLPYYH [RPN3] | 1.66 ± 0.037 | 1.67 ± 0.041 | 1.63 ± 0.07 | 1.9 ± 0.03
29 | GVANTDTAGEESQQQDE [SWI3] | 3.45 ± 0.1 | 3.55 ± 0.085 | 3.33 ± 0.062 | 3.43 ± 0.086
30 | SRFTNVSVIAPESQGQH [YMR153W/NUP53] | 3 ± 0.09 | 3.39 ± 0.087 | 2.6 ± 0.12 | 3.19 ± 0.048
31 | CLFENDLQRLKPLGLDR [ITC1] | 2.92 ± 0.074 | 3.19 ± 0.11 | 3.15 ± 0.065 | 3.09 ± 0.042
32 | KREASRGFFDILSLATE [MCD1] | 3.08 ± 0.083 | 3.21 ± 0.06 | 2.91 ± 0.063 | 3.11 ± 0.05
33 | DGGLFTLFVRDQDSAVV [QCR2] | 3.04 ± 0.11 | 3.16 ± 0.078 | 3.25 ± 0.059 | 3.32 ± 0.057
34 | FVSYFGKQIKSTIYNWG [YML103C/NUP188] | 1.67 ± 0.11 | 1.39 ± 0.071 | 1.47 ± 0.099 | 1.6 ± 0.066
35 | LSRNGKPVMEVTSSFFY [FAS1] | 3.04 ± 0.077 | 2.99 ± 0.089 | 2.79 ± 0.086 | 2.6 ± 0.073
36 | LGLLTPEVVELCQKSPV [FAS2] | 2.28 ± 0.071 | 2.73 ± 0.066 | 2.11 ± 0.12 | 2.93 ± 0.081
37 | LLERYIGNLITRQFEGR [PRP8] | 2.59 ± 0.11 | 2.63 ± 0.18 | 2.43 ± 0.15 | 1.99 ± 0.071
38 | EFMAGFNIISMTLKEMY [SMC4] |  | 2.83 ± 0.24 | 3.21 ± 0.11 | 3.21 ± 0.089
39 | RTVAGFSNVELPQCIIP [ARP7] | 2.8 ± 0.05 | 2.76 ± 0.054 | 2.56 ± 0.051 | 2.7 ± 0.034
